This note sets out measurements from PMC3443816.

For the series, the target named is T1, Cbf5 wild type;Nop10;Gar1 (in complex) (Pyrococcus furiosus;Pyrococcus …, UniProt Q7LWY0;Q8U1R4;Q8U029 1-340;1-60;=MG+2-104, ||internal_change).
T1 sequence 1: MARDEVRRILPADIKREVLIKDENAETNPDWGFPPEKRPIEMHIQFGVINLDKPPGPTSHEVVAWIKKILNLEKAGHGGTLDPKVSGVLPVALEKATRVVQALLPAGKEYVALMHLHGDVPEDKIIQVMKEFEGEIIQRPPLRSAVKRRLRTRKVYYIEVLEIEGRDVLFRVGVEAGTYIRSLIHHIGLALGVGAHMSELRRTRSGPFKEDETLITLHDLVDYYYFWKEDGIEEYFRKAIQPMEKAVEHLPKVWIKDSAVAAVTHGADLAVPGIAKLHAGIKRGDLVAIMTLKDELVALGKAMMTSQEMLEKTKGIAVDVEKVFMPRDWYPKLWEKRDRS
T1 sequence 2: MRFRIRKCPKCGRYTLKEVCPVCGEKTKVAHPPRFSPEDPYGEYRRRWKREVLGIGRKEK
T1 sequence 3: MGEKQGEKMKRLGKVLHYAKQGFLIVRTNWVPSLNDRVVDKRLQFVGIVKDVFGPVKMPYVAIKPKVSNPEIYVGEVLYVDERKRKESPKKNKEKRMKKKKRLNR
Put plainly: filter binding.

B1: H/ACA guide RNA Pf4 (structured_RNA)
RNA: AAUGCCCCUCCCCUCUCACACCCCCGUGAGAAGUGAGCGGGGGGCGGUCGGGGAGGGGACAUCA
Regarding B1, binding was put at a Kd of 21 ± 8 nM.

The term Kd denotes the free concentration of one partner at which half of the binding sites on the other are occupied at equilibrium, for simple one-to-one binding. A low value points to tighter binding.
